In test [1] the target is T1, IL-7R (as used in the IL-7/IL-7R neutralisation ELISA) (UniProt P16871 21-239, limits assumed).
T1 sequence (looked up): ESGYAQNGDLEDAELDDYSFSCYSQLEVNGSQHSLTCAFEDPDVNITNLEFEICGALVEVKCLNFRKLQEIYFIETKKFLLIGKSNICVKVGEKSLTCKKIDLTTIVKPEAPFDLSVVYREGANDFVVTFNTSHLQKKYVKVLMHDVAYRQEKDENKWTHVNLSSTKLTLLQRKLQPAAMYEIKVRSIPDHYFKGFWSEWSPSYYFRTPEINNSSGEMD
The test can be described thus: IL-7/IL-7R neutralisation ELISA; blocked ligand IL-7, bound IL-7 detected with biotinylated anti-hIL-7 and Extravidin-HRP.

For test [2], the target named is T2, IL-7R on human lymphocytes (hPBMCs) (human, UniProt P16871 21-459).
T2 sequence (looked up): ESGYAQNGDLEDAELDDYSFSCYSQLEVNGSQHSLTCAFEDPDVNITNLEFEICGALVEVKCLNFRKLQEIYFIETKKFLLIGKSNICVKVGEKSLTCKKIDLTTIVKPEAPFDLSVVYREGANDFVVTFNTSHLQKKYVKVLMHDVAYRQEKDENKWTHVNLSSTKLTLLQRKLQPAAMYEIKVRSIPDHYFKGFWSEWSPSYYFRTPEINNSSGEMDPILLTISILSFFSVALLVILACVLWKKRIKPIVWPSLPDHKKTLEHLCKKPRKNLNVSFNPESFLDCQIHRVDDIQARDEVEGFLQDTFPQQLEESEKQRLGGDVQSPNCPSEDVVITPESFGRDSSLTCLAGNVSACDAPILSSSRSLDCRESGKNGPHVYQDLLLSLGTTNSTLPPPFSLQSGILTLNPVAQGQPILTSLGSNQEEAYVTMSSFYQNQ
The test can be described thus: cell-based or functional assay.

A further test addresses T3, human TNFα (human, UniProt P01375 77-233).
T3 construct: also called TNF-alpha; Tumour necrosis factor-alpha
The test can be described thus: competition ELISA on plate-coated human TNFα; competitor 2 nM biotinylated adalimumab, detected with ExtrAvidin-HRP. Here is the method:
ELISA plates were coated with 100 ng/mL human TNFα in 250 μg/mL bovine serum albumin (BSA) in phosphate buffered saline (1×PBS) and blocked with 1% BSA in 1×PBS.
Background: An ELISA detects its analyte on a solid surface through an enzyme-linked reagent.

T3 sequence (P01375 77-233 limits assumed): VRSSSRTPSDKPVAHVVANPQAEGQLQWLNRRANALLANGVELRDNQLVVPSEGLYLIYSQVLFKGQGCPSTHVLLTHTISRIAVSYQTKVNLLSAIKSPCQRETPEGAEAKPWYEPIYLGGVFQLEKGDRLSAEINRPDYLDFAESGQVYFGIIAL

B1: FU3K bihead (bispecific antibody)
chain: DVQLVESGGGLVQPGGSLKLSCAASGFDFSSHWMYWVRQAPGKELEWLSEINTNGLITHYGDSVKGRFTVSRNNAANKMYLELTRLEPEDTALYYCARNQHGLNKGQGTQVTVSSGGGGSGGGGSKGGGGSGGGGSEVQLVESGGGLVQAGGSLRLSCESSISTFSSDAMGWFRQAPGKELEFLAAIGWSGAVTHYSDSVKGRFTISRDNAKNTVYLQMNSLRAEDTGRYYCAEDYDTDVWQYWGQGTQVTVSS
notes: Produced in S. cerevisiae; also called pre-digestion FU3K; heterobihead
Turning to B1, the “IC50 (read off the curve)” value in test [1] is roughly 0.2 nM.

B2: V7R-2E9 (VHH)
VHH: EVQLVESGGGLVQAGGSLRLSCESSISTFSSDAMGWFRQAPGKEREFLAAIGWSGAVTHYSDSVQGRFTISRDNAKNTVYLQMNSLKSEDTGRYYCAEDYDTDVWQYWGQGTQVTVSS
With B2, the “IL-7 induced pSTAT5 in hPBMCs EC50 nM” value in test [2] was found to be 2.86 nM.

B3: ID-A62U (VHH)
VHH: DVQLVESGGGLVQAGGSLRLSCESSISTFSSDAMGWFRQAPGKELEFLAAIGWSGAVTHYSDSVKGRFTISRDNAKNTVYLQMNSLRAEDTGRYYCAEDYDTDVWQYWGQGTQVTVSS
notes: Produced in S. cerevisiae; Comprises E1D and R45L mutations relative to ID-A40U
Take B3: the “IC50 (read off the curve)” value in test [1] lay in the range of 0.1 to 0.2 nM.

B4: FU3K after trypsin digestion (other)
VHH 1: DVQLVESGGGLVQPGGSLKLSCAASGFDFSSHWMYWVRQAPGKELEWLSEINTNGLITHYGDSVKGRFTVSRNNAANKMYLELTRLEPEDTALYYCARNQHGLNKGQGTQVTVSSGGGGSGGGGSK
VHH 2: GGGGSGGGGSEVQLVESGGGLVQAGGSLRLSCESSISTFSSDAMGWFRQAPGKELEFLAAIGWSGAVTHYSDSVKGRFTISRDNAKNTVYLQMNSLRAEDTGRYYCAEDYDTDVWQYWGQGTQVTVSS
notes: A mixture of two separate monomers, not a complex; also called post-digestion FU3K; ID-38F and ID-A62U monomer arms released from FU3K
For B4, in test [1], the “IC50 (read off the curve)” value is roughly 0.4 nM.

B5: ID-38F (VHH)
VHH: DVQLVESGGGLVQPGGSLKLSCAASGFDFSSHWMYWVRQAPGKELEWLSEINTNGLITHYGDSVKGRFTVSRNNAANKMYLELTRLEPEDTALYYCARNQHGLNKGQGTQVTVSS
For B5, in the test with human TNFα, the binding result is recorded as “binds”.

For the origin of these results see US20230143091A1 (SORRISO PHARMACEUTICALS, published 2023).
